According to patent US20220195023A1 (ATRECA, published 2022):
Numbering of substitutions follows the chain as printed.

Biological target: T1, CSP Protein (Plasmodium falciparum, UniProt Q7K740 19-374)
T1 construct: also called circumsporozoite protein; complete CSP protein
Experiment: SPR, antibody on chip;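 further: antibodies immobilized on a Carterra chip, directly or via anti-human Fc capture, at two spots each, with CSP flowed over at 4-5 concentrations peaking at 0.5-8 µg/mL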
Description: For SPR, each antibody was either directly coupled to a Carterra Chip or coupled using a goat anti-human Fc antibody. The uncoupled antibodies were washed off and various concentration gradients of the targets were flowed over the antibodies, where the highest concentration of each target was in the range 0.5-8 μg/mL. Each antibody was immobilized in two different locations on the chip to allow for duplicate measurements. The affinity for each antibody-target combination was determined using 4-5 target concentrations in Mathematica software. If variation between the two duplicates was >3-fold, the antibody-target measurement was repeated.

T1 sequence (Q7K740 19-374 limits assumed): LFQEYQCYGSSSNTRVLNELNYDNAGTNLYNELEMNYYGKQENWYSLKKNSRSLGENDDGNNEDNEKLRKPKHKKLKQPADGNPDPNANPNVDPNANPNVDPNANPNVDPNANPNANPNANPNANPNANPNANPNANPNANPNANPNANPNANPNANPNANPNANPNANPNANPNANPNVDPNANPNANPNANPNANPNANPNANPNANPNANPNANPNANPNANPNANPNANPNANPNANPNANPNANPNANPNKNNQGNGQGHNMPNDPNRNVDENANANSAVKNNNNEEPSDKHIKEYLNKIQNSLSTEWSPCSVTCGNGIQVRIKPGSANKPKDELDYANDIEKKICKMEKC

B1: AB-007028 (antibody, V domains shown)
VH: QMQLVESGGGVVQPGRSLRLSCAASGFTFSTYAMHWVRQAPGQGLQWVAVISYHSTNKYYEDSVRGRFTISRDNSKNTLYLQMNSLRAEDTAVYYCARDGYSSSFFDFWGQGTLVTVSS
VL: DIQMTQSPSTLSASVGDRVTITCRASQSISRWLAWYQQQPGKAPKLLMSGASVLESGVPSRFSGSGSGTEFTLTISSLQPDDFATYYCQHYNSYFVTFGQGTKVEIK
Kd: 0.0457 nM

B2: AB-007046 (antibody, V domains shown)
VH: B1 VH with A23T, A40S
VL: B1 VL with T20A, N92Y
Kd: 0.0364 nM

B3: AB-007059 (antibody, V domains shown)
VH: B1 VH with A23T, A40S, S104T
VL: B1 VL with T20A
Kd: 1.08 nM

B4: AB-007049 (antibody, V domains shown)
VH: B1 VH with A23T, A40S, Y53N, S55E
VL: B1 VL with T20A
Kd: 0.152 nM

B5: AB-007072 (antibody, V domains shown)
VH: B1 VH with A23T, A40S
VL: B1 VL with T20A, V53N
Kd: 0.194 nM

B6: AB-007052 (antibody, V domains shown)
VH: B1 VH with A23T, A40S, T56N
VL: B1 VL with T20A
Kd: 0.0261 nM

B7: AB-007062 (antibody, V domains shown)
VH: B1 VH with A23T, A40S
VL: B1 VL with T20A, R31S
Kd: 0.0849 nM

B8: AB-007064 (antibody, V domains shown)
VH: B1 VH with A23T, A40S
VL: B1 VL with T20A, S49T
Kd: 0.556 nM

B9: AB-007073 (antibody, V domains shown)
VH: B1 VH with A23T, A40S
VL: B1 VL with T20A, Y94H
Kd: 0.0816 nM

B10: AB-007074 (antibody, V domains shown)
VH: B1 VH
VL: B1 VL with F95Y
Kd: 0.0415 nM

B11: AB-007031 (antibody, V domains shown)
VH: B1 VH with A23T, A40S
VL: B1 VL with T20A, M48I
Kd: 0.0496 nM

B12: AB-007048 (antibody, V domains shown)
VH: B1 VH with A23T, A33S, A40S
VL: B1 VL with T20A
Kd: 0.437 nM

B13: AB-007070 (antibody, V domains shown)
VH: B1 VH with A23T, A40S
VL: B1 VL with T20A, G50A
Kd: 0.177 nM

B14: AB-007067 (antibody, V domains shown)
VH: B1 VH with A23T, A40S
VL: B1 VL with T20A, G50S
Kd: 0.0877 nM

B15: AB-007030 (antibody, V domains shown)
VH: B1 VH with A23T, A40S, Q46E, E61A
VL: B1 VL with T20A
Kd: 0.132 nM

B16: AB-007050 (antibody, V domains shown)
VH: B1 VH with A23T, A40S, Y53Q
VL: B1 VL with T20A
Kd: 0.147 nM

B17: AB-007037 (antibody, V domains shown)
VH: B1 VH with A23T, A40S, R65K
VL: B1 VL with T20A
Kd: 0.0346 nM

B18: AB-007053 (antibody, V domains shown)
VH: B1 VH with A23T, A40S, N57Q
VL: B1 VL with T20A
Kd: 0.298 nM

B19: AB-007068 (antibody, V domains shown)
VH: B1 VH with A23T, A40S
VL: B1 VL with T20A, G50L
Kd: 0.152 nM

B20: AB-007045 (antibody, V domains shown)
VH: B1 VH with A23T, A40S, G100A
VL: B1 VL with T20A
Kd: 0.284 nM

B21: AB-007035 (antibody, V domains shown)
VH: B1 VH with A23T, T31S, A40S
VL: B1 VL with T20A
Kd: 0.0513 nM

B22: AB-007032 (antibody, V domains shown)
VH: B1 VH with M2V
VL: B1 VL with M48I
Kd: 0.0469 nM

B23: AB-007066 (antibody, V domains shown)
VH: B1 VH with A23T, A40S
VL: B1 VL with T20A, G50Q
Kd: 0.376 nM

B24: AB-007056 (antibody, V domains shown)
VH: B1 VH with A23T, A40S, S102Q
VL: B1 VL with T20A
Kd: 0.042 nM

B25: AB-007039 (antibody, V domains shown)
VH: B1 VH with A23T, A40S
VL: B1 VL with T20A, F95S
Kd: 0.106 nM

B26: AB-007051 (antibody, V domains shown)
VH: B1 VH with A23T, A40S, T56R
VL: B1 VL with T20A
Kd: 0.0414 nM

B27: AB-007033 (antibody, V domains shown)
VH: B1 VH with Q46E, E61A
VL: B1 VL
Kd: 0.0408 nM

B28: AB-007043 (antibody, V domains shown)
VH: B1 VH with A23T, A40S
VL: B1 VL with T20A, S56D
Kd: 0.0426 nM

B29: AB-007044 (antibody, V domains shown)
VH: B1 VH with A23T, A40S, D62E
VL: B1 VL with T20A
Kd: 0.0319 nM

B30: AB-007036 (antibody, V domains shown)
VH: B1 VH with A23T, A40S, H54D
VL: B1 VL with T20A
Kd: 0.0967 nM

B31: AB-007040 (antibody, V domains shown)
VH: B1 VH with A23T, A40S
VL: B1 VL with T20A, F95Y
Kd: 0.0447 nM

B32: AB-007069 (antibody, V domains shown)
VH: B1 VH with A23T, A40S
VL: B1 VL with T20A, G50V
Kd: 0.174 nM

B33: AB-007061 (antibody, V domains shown)
VH: B1 VH with A23T, A40S
VL: B1 VL with T20A, S30D
Kd: 0.0504 nM

B34: AB-007058 (antibody, V domains shown)
VH: B1 VH with A23T, A40S, S103T
VL: B1 VL with T20A
Kd: 0.149 nM

B35: AB-007034 (antibody, V domains shown)
VH: B1 VH with M2V, Q46E, E61A
VL: B1 VL with M48I
Kd: 0.0824 nM

B36: AB-007041 (antibody, V domains shown)
VH: B1 VH with A23T, T31D, A40S
VL: B1 VL with T20A
Kd: 0.0439 nM

B37: AB-007065 (antibody, V domains shown)
VH: B1 VH with A23T, A40S
VL: B1 VL with T20A, G50K
Kd: 0.454 nM

B38: AB-007060 (antibody, V domains shown)
VH: B1 VH with A23T, A40S, F105Y
VL: B1 VL with T20A
Kd: 0.199 nM

B39: AB-007071 (antibody, V domains shown)
VH: B1 VH with A23T, A40S
VL: B1 VL with T20A, V53S
Kd: 0.0683 nM

B40: AB-007054 (antibody, V domains shown)
VH: B1 VH with A23T, A40S, S102A
VL: B1 VL with T20A
Kd: 0.17 nM

B41: AB-007038 (antibody, V domains shown)
VH: B1 VH with A23T, A40S, F108Y
VL: B1 VL with T20A
Kd: 0.029 nM

B42: AB-007047 (antibody, V domains shown)
VH: B1 VH with A23T, T31N, A40S
VL: B1 VL with T20A
Kd: 0.175 nM

B43: AB-007055 (antibody, V domains shown)
VH: B1 VH with A23T, A40S, S102T
VL: B1 VL with T20A
Kd: 0.374 nM

B44: AB-007057 (antibody, V domains shown)
VH: B1 VH with A23T, A40S, S102H
VL: B1 VL with T20A
Kd: 0.153 nM

B45: AB-007063 (antibody, V domains shown)
VH: B1 VH with A23T, A40S
VL: B1 VL with T20A, S49A
Kd: 0.0524 nM

B46: AB-007042 (antibody, V domains shown)
VH: B1 VH with A23T, A40S
VL: B1 VL with T20A, S28D
Kd: 0.034 nM
